The source of these data is paper PMC5743843 (Protein Science : A Publication of the Protein Society, 2017).

The chains are these.
B4: urease accessory protein UreF (natural protein)
chain: MDKGKSVKSTEKSVGMPPKTPKTDNNAHVDNEFLILQVNDAVFPIGSYTHSFGLETYIQQKKVTNKESALEYLKANLSSQFLYTEMLSLKLTYESALQQDLKKILGVEEVIMLSTSPMELRLANQKLGNRFIKTLQAMNELDMGEFFNAYAQKTKDPTHATSYGVFAASLGIELKKALRHYLYAQTSNMVINCVKSVPLSQNDGQKILLSLQSPFNQLIEKTLELDESHLCTASVQNDIKAMQHESLYSRLYMS

In data set [1] the target is T1, extracellular region of Nectin-Like 2 (UniProt Q9BY67 45-374).
T1 sequence: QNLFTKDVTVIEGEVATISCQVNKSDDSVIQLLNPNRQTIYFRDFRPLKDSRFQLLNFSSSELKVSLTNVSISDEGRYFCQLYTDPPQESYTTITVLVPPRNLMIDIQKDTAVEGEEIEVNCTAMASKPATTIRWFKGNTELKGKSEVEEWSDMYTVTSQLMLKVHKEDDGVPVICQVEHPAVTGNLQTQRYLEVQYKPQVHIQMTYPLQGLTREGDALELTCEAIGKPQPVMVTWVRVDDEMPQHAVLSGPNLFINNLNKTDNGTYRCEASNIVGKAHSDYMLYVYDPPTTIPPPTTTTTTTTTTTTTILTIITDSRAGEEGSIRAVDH
Briefly: SPR.

The target of another data set is T2, FtsL (E. coli, UniProt P0AEN4 1-121).
T2 sequence: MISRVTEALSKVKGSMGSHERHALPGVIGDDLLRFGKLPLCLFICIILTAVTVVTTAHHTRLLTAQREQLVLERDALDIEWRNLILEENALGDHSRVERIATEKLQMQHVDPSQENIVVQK
Kind of data set: FRET or BRET + other: single molecule photobleaching.

For data set [2], the target named is B4. Briefly: crystal structure.
The target of data set [3] is T3, urease accessory protein UreH (Helicobacter pylori, UniProt Q09067 1-265).
T3 sequence: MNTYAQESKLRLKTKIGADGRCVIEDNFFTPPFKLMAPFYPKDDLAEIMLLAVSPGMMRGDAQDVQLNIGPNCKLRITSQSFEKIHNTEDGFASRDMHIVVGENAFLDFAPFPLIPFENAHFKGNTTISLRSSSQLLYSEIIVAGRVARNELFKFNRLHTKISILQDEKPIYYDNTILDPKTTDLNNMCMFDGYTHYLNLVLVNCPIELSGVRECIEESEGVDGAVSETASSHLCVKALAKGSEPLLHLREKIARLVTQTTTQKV
Kind of data set: crystal structure.

The data set “crystal structure” deals with the molecule itself. Kind of data set: crystal structure.

B1: extracellular region of CRTAM (domain or fragment)
chain: SLTNHTETITVEEGQTLTLKCVTSLRKNSSLQWLTPSGFTIFLNEYPALKNSKYQLLHHSANQLSITVPNVTLQDEGVYKCLHYSDSVSTKEVKVIVLATPFKPILEASVIRKQNGEEHVVLMCSTMRSKPPPQITWLLGNSMEVSGGTLHEFETDGKKCNTTSTLIIHTYGKNSTVDCIIRHRGLQGRKLVAPFRFEDLVTDEETASDALERNSLSSQDPQQPTSTVSVTEDSSTSEIDKEEKEQTTQDPDLTTEANPQYLGLARKKSG
In the case of B1, the Kd (in general, the concentration at which binding is half-saturated) in data set [1] amounted to 37.2 nM.

B2: FtsB (natural protein)
chain: MGKLTLLLLAILVWLQYSLWFGKNGIHDYTRVNDDVAAQQATNAKLKARNDQLFAEIDDLNGGQEALEERARNELSMTRPGETFYRLVPDASKRAQSAGQNNR
In the case of B2, the stoichiometry N (in general, a count of units in the complex or per binding partner) with FtsL is 1 FtsB per FtsL.

B3: urease accessory protein UreG (enzyme)
chain: MVKIGVCGPVGSGKTALIEALTRHMSKDYDMAVITNDIYTKEDAEFMCKNSVMPRERIIGVETGGCPHTAIREDASMNLEAVEEMHGRFPNLELLLIESGGDNLSATFNPELADFTIFVIDVAEGDKIPRKGGPGITRSDLLVINKIDLAPYVGADLKVMERDSKKMRGEKPFIFTNIRAKEGLDDVIAWIKRNALLED
Take B3: in data set [2], the binding result was “binds”.

Take B4: the binding result (in data set [3]; in the data set “crystal structure”) was “binds” throughout.
